Experimental data as given in patent US20150344570A1 (published 2015).

Columns and labels:
FcγRIIa H = FcγRIIa H (human, UniProt P12318 34-217); test: SPR Biacore, captured antibody, FcγR analyte; vs GpH7-A5/GpH7-B3/GpL16-k0 = 100
FcγRIa = target: T1, FcγRIa (human, UniProt P12314 16-292); test: SPR (Biacore), captured antibody, FcγR as analyte, relative binding
T1 construct: extracellular domain; Soluble extracellular domain with C-terminal His tag, used as analyte; also called FcgRI; CD64; not shown: His tag at the C terminus
Description: (§1) The heterodimerized antibodies He Abs in which one of the H chains was introduced with an alteration were assayed for their binding activities to each activating FcγR and inhibitory FcγR according to the method described in Example 4. […] The activating FcγRs in FIGS. 26, 27, 28, and 29 are FcγRIa, FcγRIIa (R), FcγRIIa (H), and FcγRIIIa, respectively.
(§2) Analysis of interaction between objective antibody and the FcγR was carried out using Biacore T100 (GE Healthcare). HBS-EP+ (GE Healthcare) was used as the running buffer, and the measurement temperature was set to 25° C. Chips produced by immobilizing the antigen peptide by the amine coupling method to a Series S Sencor Chip CM5 (GE Healthcare), or alternatively, chips produced by allowing preliminarily biotinylated antigen peptides to interact with and immobilize onto a Series S Sensor Chip SA (certified) (GE Healthcare) were used. Antibodies of interest were captured onto an antigen peptide-immobilized chip, and allowed to interact to each FcγR diluted with running buffer. To regenerate and repeatedly use the chip, the antibodies captured on the chip were washed off by reacting 10 mM glycine-HCl, pH 1.5.

FcγRIIb = target: T2, FcγRIIb (human, UniProt P31994 43-217); test: as above
T2 construct: extracellular domain; Soluble extracellular domain with C-terminal His tag, used as analyte; also called FcgRIIb; CD32B; not shown: His tag at the C terminus
T2 sequence (looked up): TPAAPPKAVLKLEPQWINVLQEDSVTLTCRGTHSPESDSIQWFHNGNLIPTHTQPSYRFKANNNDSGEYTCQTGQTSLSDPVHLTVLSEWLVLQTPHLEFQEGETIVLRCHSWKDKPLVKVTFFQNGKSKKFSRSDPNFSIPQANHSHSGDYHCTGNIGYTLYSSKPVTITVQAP
Description: as §1, §2

Sequence of FcγRIIa H (P12318 34-217): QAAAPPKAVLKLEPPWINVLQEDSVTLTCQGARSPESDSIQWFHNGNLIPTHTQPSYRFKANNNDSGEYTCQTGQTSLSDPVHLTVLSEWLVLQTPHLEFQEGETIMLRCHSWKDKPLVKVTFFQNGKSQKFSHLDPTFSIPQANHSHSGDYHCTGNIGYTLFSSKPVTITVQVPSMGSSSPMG
T1 sequence (P12314 16-292): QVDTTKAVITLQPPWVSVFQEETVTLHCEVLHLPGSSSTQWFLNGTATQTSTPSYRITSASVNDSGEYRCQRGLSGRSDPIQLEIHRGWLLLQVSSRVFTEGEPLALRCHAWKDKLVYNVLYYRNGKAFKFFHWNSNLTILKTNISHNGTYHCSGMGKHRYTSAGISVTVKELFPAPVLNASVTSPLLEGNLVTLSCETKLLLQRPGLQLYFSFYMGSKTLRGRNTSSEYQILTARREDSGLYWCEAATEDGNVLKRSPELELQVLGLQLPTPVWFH

B1: GpH7-A5/GpH7-B3 variant V266_07I/GpL16-k0 (antibody, human IgG1, kappa)
heavy 1: not shown
heavy 2: not shown
light: DIVMTQSPLSLPVTPGEPASISCQASESLVHSNRNTYLHWYLQKPGQSPQLLIYKVSNRFSGVPDRFSGSGSGTDFTLKISRVEAEDVGVYYCSQNTHVPPTFGQGTKVEIERTVAAPSVFIFPPSDEQLKSGTASVVCLLNNFYPREAKVQWKVDNALQSGNSQESVTEQDSKDSTYSLSSTLTLSKADYEKHKVYACEVTHQGLSSPVTKSFNRGEC
notes: also called He Ab V266_07I
He/Con_2aH (FcγRIIa H): 106 % of control

B2: GpH7-A5/GpH7-B3 variant S267_02A/GpL16-k0 (antibody, human IgG1, kappa)
heavy 1: not shown
heavy 2: not shown
light: DIVMTQSPLSLPVTPGEPASISCQASESLVHSNRNTYLHWYLQKPGQSPQLLIYKVSNRFSGVPDRFSGSGSGTDFTLKISRVEAEDVGVYYCSQNTHVPPTFGQGTKVEIERTVAAPSVFIFPPSDEQLKSGTASVVCLLNNFYPREAKVQWKVDNALQSGNSQESVTEQDSKDSTYSLSSTLTLSKADYEKHKVYACEVTHQGLSSPVTKSFNRGEC
notes: also called He Ab S267_02A
He/Con_2aH (FcγRIIa H): 120 % of control

B3: GpH7-A5/GpH7-B3 variant L328_20W/GpL16-k0 (antibody, human IgG1, kappa)
heavy 1: not shown
heavy 2: not shown
light: DIVMTQSPLSLPVTPGEPASISCQASESLVHSNRNTYLHWYLQKPGQSPQLLIYKVSNRFSGVPDRFSGSGSGTDFTLKISRVEAEDVGVYYCSQNTHVPPTFGQGTKVEIERTVAAPSVFIFPPSDEQLKSGTASVVCLLNNFYPREAKVQWKVDNALQSGNSQESVTEQDSKDSTYSLSSTLTLSKADYEKHKVYACEVTHQGLSSPVTKSFNRGEC
notes: also called He Ab L328_20W
He/Con_2aH (FcγRIIa H): 113 % of control

B4: GpH7-A5/GpH7-B3 variant S239_09D/GpL16-k0 (antibody, human IgG1, kappa)
heavy 1: not shown
heavy 2: not shown
light: DIVMTQSPLSLPVTPGEPASISCQASESLVHSNRNTYLHWYLQKPGQSPQLLIYKVSNRFSGVPDRFSGSGSGTDFTLKISRVEAEDVGVYYCSQNTHVPPTFGQGTKVEIERTVAAPSVFIFPPSDEQLKSGTASVVCLLNNFYPREAKVQWKVDNALQSGNSQESVTEQDSKDSTYSLSSTLTLSKADYEKHKVYACEVTHQGLSSPVTKSFNRGEC
notes: also called He Ab S239_09D
He/Con_2aH (FcγRIIa H): 114 % of control

B5: GpH7-A5/GpH7-B3 variant Y296_18N/GpL16-k0 (antibody, human IgG1, kappa)
heavy 1: not shown
heavy 2: not shown
light: DIVMTQSPLSLPVTPGEPASISCQASESLVHSNRNTYLHWYLQKPGQSPQLLIYKVSNRFSGVPDRFSGSGSGTDFTLKISRVEAEDVGVYYCSQNTHVPPTFGQGTKVEIERTVAAPSVFIFPPSDEQLKSGTASVVCLLNNFYPREAKVQWKVDNALQSGNSQESVTEQDSKDSTYSLSSTLTLSKADYEKHKVYACEVTHQGLSSPVTKSFNRGEC
notes: also called He Ab Y296_18N
He/Con_2aH (FcγRIIa H): 104 % of control

B6: GpH7-A5/GpH7-B3 variant T335_07I/GpL16-k0 (antibody, human IgG1, kappa)
heavy 1: not shown
heavy 2: not shown
light: DIVMTQSPLSLPVTPGEPASISCQASESLVHSNRNTYLHWYLQKPGQSPQLLIYKVSNRFSGVPDRFSGSGSGTDFTLKISRVEAEDVGVYYCSQNTHVPPTFGQGTKVEIERTVAAPSVFIFPPSDEQLKSGTASVVCLLNNFYPREAKVQWKVDNALQSGNSQESVTEQDSKDSTYSLSSTLTLSKADYEKHKVYACEVTHQGLSSPVTKSFNRGEC
notes: also called He Ab T335_07I
He/Con_2aH (FcγRIIa H): 108 % of control

B7: GpH7-A5/GpH7-B3 variant S337_10E/GpL16-k0 (antibody, human IgG1, kappa)
heavy 1: not shown
heavy 2: not shown
light: DIVMTQSPLSLPVTPGEPASISCQASESLVHSNRNTYLHWYLQKPGQSPQLLIYKVSNRFSGVPDRFSGSGSGTDFTLKISRVEAEDVGVYYCSQNTHVPPTFGQGTKVEIERTVAAPSVFIFPPSDEQLKSGTASVVCLLNNFYPREAKVQWKVDNALQSGNSQESVTEQDSKDSTYSLSSTLTLSKADYEKHKVYACEVTHQGLSSPVTKSFNRGEC
notes: also called He Ab S337_10E
He/Con_2aH (FcγRIIa H): 102 % of control

B8: GpH7-A5/GpH7-B3 variant T335_10E/GpL16-k0 (antibody, human IgG1, kappa)
heavy 1: not shown
heavy 2: not shown
light: DIVMTQSPLSLPVTPGEPASISCQASESLVHSNRNTYLHWYLQKPGQSPQLLIYKVSNRFSGVPDRFSGSGSGTDFTLKISRVEAEDVGVYYCSQNTHVPPTFGQGTKVEIERTVAAPSVFIFPPSDEQLKSGTASVVCLLNNFYPREAKVQWKVDNALQSGNSQESVTEQDSKDSTYSLSSTLTLSKADYEKHKVYACEVTHQGLSSPVTKSFNRGEC
notes: also called He Ab T335_10E
He/Con_2aH (FcγRIIa H): 108 % of control

B9: GpH7-A5/GpH7-B3 variant A327_05P/GpL16-k0 (antibody, human IgG1, kappa)
heavy 1: not shown
heavy 2: not shown
light: DIVMTQSPLSLPVTPGEPASISCQASESLVHSNRNTYLHWYLQKPGQSPQLLIYKVSNRFSGVPDRFSGSGSGTDFTLKISRVEAEDVGVYYCSQNTHVPPTFGQGTKVEIERTVAAPSVFIFPPSDEQLKSGTASVVCLLNNFYPREAKVQWKVDNALQSGNSQESVTEQDSKDSTYSLSSTLTLSKADYEKHKVYACEVTHQGLSSPVTKSFNRGEC
notes: He Ab: mutation in one H chain only; also called He Ab
He/Con_1a (FcγRIa): 99.3 % of GpH7-A5/GpH7-B3/GpL16-k0 | He/Con_2b (FcγRIIb): 69.3 % of GpH7-A5/GpH7-B3/GpL16-k0

B10: GpH7-A5/GpH7-B3 variant A327_04F/GpL16-k0 (antibody, human IgG1, kappa)
heavy 1: not shown
heavy 2: not shown
light: DIVMTQSPLSLPVTPGEPASISCQASESLVHSNRNTYLHWYLQKPGQSPQLLIYKVSNRFSGVPDRFSGSGSGTDFTLKISRVEAEDVGVYYCSQNTHVPPTFGQGTKVEIERTVAAPSVFIFPPSDEQLKSGTASVVCLLNNFYPREAKVQWKVDNALQSGNSQESVTEQDSKDSTYSLSSTLTLSKADYEKHKVYACEVTHQGLSSPVTKSFNRGEC
notes: as for B9
He/Con_1a (FcγRIa): 99.1 % of GpH7-A5/GpH7-B3/GpL16-k0 | He/Con_2b (FcγRIIb): 63.7 % of GpH7-A5/GpH7-B3/GpL16-k0
